We go through two substances from PMC11479944.

In general, stoichiometry N refers to a count of units in the complex or per binding partner.

The target in assay [1] is GluA2 N-terminal domain (isolated GluA2 NTD) (rat). Description: SEC-MALS; GluA2 NTD injected at 13 mg/mL and 1 mg/mL (legend; the text says 1-2 mg ml^-1), 100 µl samples, Superdex S200 10/300, 10 mM HEPES, 150 mM KCl, pH 7.5; only dimers seen, no step from dimers to tetramer. (In general: In gel filtration, larger molecules generally elute earlier.)
In assay [2] the target is rat GluA2flip(Q) isoform, tagged with a FLAG epitope near its C terminus (rat).

Regarding “GluA2 N-terminal domain (isolated GluA2 NTD) (domain or fragment)”, the stoichiometry N in assay [1] amounted to 2. On to “rat GluA2flip(Q) isoform, tagged with a FLAG epitope near its C terminus (receptor)”, for which the recovery from desensitization, patch-clamp recordings of GluA2 expressed in HEK293 cells, switching from pH 7.4 to pH 5.5 (pH 6.4 also tested) in assay [2] was determined as 2 fold.
